Experimental findings from patent US20250297029A1 (NANJING LEGEND BIOTECH, published 2025) are described below.

Residue numbers refer to the chain shown, from its start. A value given as a limit tells only on which side of the number the result lay.

To fix the notation:
B1: VL1.M2-VH2.M6 humanized scFv (scFv, not shown: a dimerising Fc or GST)
scFv: DIVMTQTPLSLSVTPGQPASISCRSSQSLVHSNGNTYLHWYLQKPGQSPQLLIYKVSSRFSGVPDRFSGSGSGTDFTLKISRVEAEDVGVYYCSQNTHVPPTFGQGTKVEIKGGGGSGGGGSGGGGSQVQLVQSGAEVKKPGASVKVSCKASGYTFTSYEMHWVRQAPGQGLEWMGALDPKTGDTAYSQKFQGRVTLTADTSTSTVYMELSSLRSEDTAVYYCTRFYSYTYWGQGTLVTVSS
notes: Crude scFv with Fc tag from HEK293 supernatant
B2: VL1-VH2 humanized scFv (scFv, not shown: a dimerising Fc or GST)
scFv: B1 scFv with S58N, S158D, Q192K
notes: as for B1
B3: VL1-VH2.M1 humanized scFv (scFv, not shown: a dimerising Fc or GST)
scFv: B1 scFv with S58N, Q192K
notes: as for B1
B4: VL1.M2-VH2.M1 humanized scFv (scFv, not shown: a dimerising Fc or GST)
scFv: B1 scFv with Q192K
notes: as for B1
B5: VL1.M2-VH2.M5 humanized scFv (scFv, not shown: a dimerising Fc or GST)
scFv: B1 scFv with S158D
notes: as for B1
B6: VL1.M2-VH2 humanized scFv (scFv, not shown: a dimerising Fc or GST)
scFv: B1 scFv with S158D, Q192K
notes: as for B1
B7: VL1-VH2.M5 humanized scFv (scFv, not shown: a dimerising Fc or GST)
scFv: B1 scFv with S58N, S158D
notes: as for B1
B8: VL1-VH2.M6 humanized scFv (scFv, not shown: a dimerising Fc or GST)
scFv: B1 scFv with S58N
notes: as for B1
B9: mouse anti-GPC3 GC33 scFv (VL-VH) (scFv)
scFv: DVVMTQTPLSLPVSLGDQASISCRSSQSLVHSNGNTYLHWYLQKPGQSPKLLIYKVSNRFSGVPDRFSGSGSGTDFTLKISRVEAEDLGVYFCSQNTHVPPTFGSGTKLEIKGGGGSGGGGSGGGGSQVQLQQSGAELVRPGASVKLSCKASGYTFTDYEMHWVKQTPVHGLKWIGALDPKTGDTAYSQKFKGKATLTADKSSSTAYMELRSLTSEDSAVYYCTRFYSYTYWGQGTLVTVSA
notes: also called mouse scFv; not shown: C-terminal Fc tag (human Fc, used only for capture on the anti-human Fc chip) and any junction to it
B10: VL1.M2-VH2.M11 humanized scFv (scFv, not shown: a dimerising Fc or GST)
scFv: B1 scFv with D184S
B11: VL1.M2-VH2.M9 humanized scFv (scFv, not shown: a dimerising Fc or GST)
scFv: B1 scFv with T182G
B12: VL1.M2-VH2.M10 humanized scFv (scFv, not shown: a dimerising Fc or GST)
scFv: B1 scFv with K181S, T182G
B13: VL1.M2-VH2.M8 humanized scFv (scFv, not shown: a dimerising Fc or GST)
scFv: B1 scFv with K181S
B14: VL1.M6-VH2.M6 humanized scFv (scFv, not shown: a dimerising Fc or GST)
scFv: B1 scFv with S94M
B15: VL1.M3-VH2.M6 humanized scFv (scFv, not shown: a dimerising Fc or GST)
scFv: B1 scFv with N35K
B16: VL1.M7-VH2.M6 humanized scFv (scFv, not shown: a dimerising Fc or GST)
scFv: B1 scFv with N96G
B17: VL1.M8-VH2.M6 humanized scFv (scFv, not shown: a dimerising Fc or GST)
scFv: B1 scFv with V99W

T1 sequence (P51654 25-559 limits assumed): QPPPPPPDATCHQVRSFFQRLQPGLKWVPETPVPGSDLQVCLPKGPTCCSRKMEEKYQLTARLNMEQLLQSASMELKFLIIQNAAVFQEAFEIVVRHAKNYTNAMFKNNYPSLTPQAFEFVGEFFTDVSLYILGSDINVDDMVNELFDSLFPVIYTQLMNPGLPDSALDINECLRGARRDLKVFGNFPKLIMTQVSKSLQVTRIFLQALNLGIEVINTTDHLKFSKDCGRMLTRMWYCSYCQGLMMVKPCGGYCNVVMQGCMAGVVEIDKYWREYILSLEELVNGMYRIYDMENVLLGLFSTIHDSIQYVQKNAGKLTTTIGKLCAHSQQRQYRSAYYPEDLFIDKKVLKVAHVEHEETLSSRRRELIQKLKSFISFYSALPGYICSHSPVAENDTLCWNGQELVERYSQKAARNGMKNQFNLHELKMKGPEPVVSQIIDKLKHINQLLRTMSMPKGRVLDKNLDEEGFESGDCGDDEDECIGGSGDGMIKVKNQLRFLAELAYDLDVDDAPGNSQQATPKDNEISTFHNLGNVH

The first test concerns the target T1, GPC3 (UniProt P51654 25-559, limits assumed).
T1 construct: also called antigen GPC3; Glypican 3
The test can be described thus: SPR (Biacore T200); scFv-Fc captured by anti-human Fc pAb, GPC3 10-320 nM in flow. An excerpt:
(§1) The humanized VLs (VL1 and VL1.M2) were connected to humanized VHs (VH2, VH2.M1, VH2.M5 and VH2.M6) with a (G4S)₃ linker (SEQ ID NO: 10) to construct humanized scFvs. These scFvs were expressed with a C-terminal Fc tag in HEK293 cells. The crude scFv proteins secreted to the cell culture supernatant were used for binding affinity determination using surface plasmon resonance (SPR) on a Biacore T200 machine. Briefly, the scFv protein was captured on the sensor chip pre-coated with goat-anti-human Fc polyclonal antibody (pAb) (Jackson ImmunoResearch, cat #109-005-098) via the interaction between pAb and the Fc tag, then the antigen GPC3 concentration ranging from 10 nM to 320 nM flowed through the sensor chip. After 100 s of association, running buffer (10 mM HEPES, 150 mM NaCl, 3 mM EDTA, 0.005% Tween-20, pH 7.4) flowed through the sensor chip to allow the scFv-GPC3 complex to dissociation. The sensor chip was regenerated using 50 mM HCl between cycles.
(In general: In SPR one partner is held on a chip, and binding of the other changes the refractive index at the surface.)
As a reminder, the Kd is a measure of binding affinity in units of concentration. A high value points to lower affinity. The koff is the rate constant with which the complex falls apart. A higher koff goes with a short-lived complex. For orientation: kon means the second-order rate constant of association. Low values mean slower complex formation, high ones faster complex formation. As for B1, the Kd stood at 2.7 nM, the koff amounted to 0.0005 s⁻¹ and the kon is 190000 M⁻¹ s⁻¹.
As for B2, binding was characterised by a dissociation constant (Kd) of 1.7 nM, the off-rate constant (koff) came to 0.00029 s⁻¹ and the kon amounted to 170000 M⁻¹ s⁻¹.
With B3, the affinity, expressed as Kd, was 1.9 nM; the koff was determined as 0.00036 s⁻¹; the on-rate (kon) is 190000 M⁻¹ s⁻¹.
For B4 the same measures were 3 nM, 0.00051 s⁻¹ and 170000 M⁻¹ s⁻¹.
For B5 the same measures were 2.1 nM, 0.00037 s⁻¹ and 170000 M⁻¹ s⁻¹.
The like results for B6 were, in that order, 2.2 nM, 0.00035 s⁻¹ and 160000 M⁻¹ s⁻¹.
On to B7, for which the affinity, expressed as Kd, was 1.6 nM; the koff is 0.00027 s⁻¹; the kon stood at 170000 M⁻¹ s⁻¹.
As for B8, the Kd came out at 2 nM, the koff was determined as 0.00037 s⁻¹ and the association rate constant (kon) worked out at 190000 M⁻¹ s⁻¹.
For B9 the same measures were 1.8 nM, 0.00023 s⁻¹ and 130000 M⁻¹ s⁻¹.

Another test has as its target T1, GPC3. The test can be described thus: SPR as in Example 1 (Biacore T200; scFv-Fc captured, GPC3 in flow).
Text: as §1
To further improve the humanization of anti-GPC3 scFvs, additional amino acid residues in VH1 and VL1 were mutated to their human germline counterparts. In HCDR2 of VH2.M6, mutations K54S, T55G or both were introduced, yielding VH2.M8 (SEQ ID NO: 11), VH2.M9 (SEQ ID NO: 12) and VH2.M10 (SEQ ID NO: 13) sequences, respectively. Mutation D57S was introduced to VH2.M6, yielding VH2.M11 sequence (SEQ ID NO: 14). All three additional mutations was introduced to VH2.M6, yielding VH2.M12 sequence (SEQ ID NO: 15). Similarly for VL1.M2, an additional N35K mutation was introduced to LCDR1, yielding VL1.M3 (SEQ ID NO: 16). Additional S94M, N96G and V99W mutations were introduced to LCDR3 of VL1.M2 individually, yielding VL1.M6 (SEQ ID NO: 17), VL1.M7 (SEQ ID NO: 18) and VL1.M8 (SEQ ID NO: 19) sequences, respectively. Additional S94M mutations was introduced to LCDR3 of VL1, yielding VL1.M9 (SEQ ID NO: 137) sequence. The binding affinity of these humanized variants were again determined using SPR as described in Example 1 (Table 5).
Turning to B1, the Kd worked out at 6.8 nM, the off-rate constant (koff) is 0.00048 s⁻¹ and the association rate constant (kon) is 70000 M⁻¹ s⁻¹.
The like results for B10 were, in that order, 13 nM, 0.00085 s⁻¹ and 67000 M⁻¹ s⁻¹.
The like results for B11 were, in that order, 8.2 nM, 0.0006 s⁻¹ and 74000 M⁻¹ s⁻¹.
On to B12, for which the Kd came out at 6.8 nM, the koff came to 0.0005 s⁻¹ and the on-rate (kon) worked out at 74000 M⁻¹ s⁻¹.
For B13 the same measures were 6 nM, 0.00044 s⁻¹ and 74000 M⁻¹ s⁻¹.
B14 gave a Kd of 5.7 nM, a koff of 0.00058 s⁻¹ and a kon of 100000 M⁻¹ s⁻¹.
Molecule B15 showed a dissociation constant Kd of 27 nM, a koff of 0.0016 s⁻¹ and a kon of 61000 M⁻¹ s⁻¹.
On to B16, for which binding was put at a Kd of 51 nM, the koff turned out to be 0.0034 s⁻¹ and the association rate constant (kon) was 67000 M⁻¹ s⁻¹.
Turning to B17, binding was put at a Kd of 44 nM, the koff was determined as 0.0042 s⁻¹ and the kon was determined as 94000 M⁻¹ s⁻¹.
In turn, B9 registered a dissociation constant Kd of 4 nM, a koff of 0.00021 s⁻¹ and a kon of 51000 M⁻¹ s⁻¹.

Another test concerns the target T1, GPC3. The test can be described thus: SPR as in Example 1; reference not named (VH2.M6 or mouse scFv).
Text: as §1
To further improve the humanization of anti-GPC3 scFvs, additional amino acid residues in VH1 and VL1 were mutated to their human germline counterparts. […] The binding affinity of these humanized variants were again determined using SPR as described in Example 1 (Table 5).
Take B10: the “fold drop in binding affinity” value was less than 4 fold.
